Measurements as given in IntAct's records for PubMed 31515488.

B1: Coiled-coil domain-containing protein 185 (Homo sapiens), Q8N715 (parent)
chain: MAGFSHFSQPPYRDLWEPPRPGGERESTQRLGGQRSGADSTACSRAGTPGAESEAGACWLHPHCSFTPRPRRRGCSDSLRGSRSLSDVARRPLERSRKHRPRSRRLEDAWGETGTKPRPAWQPQTQLPPQRPQPCPHYPLAQGDSPPPCPGGAGTPLSGTFRVEKAQGGDQWAVPLGRHLGRWSPSSVPSERSSVPSQKFKRHSACVCAQKRDSSDQVESLASRDSQPLASSKEMRSPHTQVLKSKLEEVVVSSQDQQIVALVLTRLKKAQRIRELQQQAAKAWEELKRSDQKVQMTLERERRLLLRQSQEQWQEKEQRKTLQSPEQRGLRRDSQRKNVPPGESRWKEQPEDQESPRQEKLEKARAQAEHRKQCQVRRLREQEKMLRNLREQHSLQLQRRLVEACRKRHLHAVEGQKKVQDTNLSSLINYQARKVLMDCQAKAEELLRQLSLEQSFQRSQEIHQGLRKERQRELREKAQKEEEQLQQARWRAGESEEQRKMRKRILVELADEKIRQARSHVHKTTRDKVQHLRELNHLREKNHHILKLKAEKEEKCHIEGIKEAIKKKEQRVQHISQGKDPNFQEFQKLPQASRREERAPPNSSLDQMVLEAQLRACQQNRGY
B2: Ankyrin repeat and BTB/POZ domain-containing protein 1 (Homo sapiens), Q969K4 (parent)
chain: MDTSDLFASCRKGDVGRVRYLLEQRDVEVNVRDKWDSTPLYYACLCGHEELVLYLLANGARCEANTFDGERCLYGALSDPIRRALRDYKQVTASCRRRDYYDDFLQRLLEQGIHSDVVFVVHGKPFRVHRCVLGARSAYFANMLDTKWKGKSVVVLRHPLINPVAFGALLQYLYTGRLDIGVEHVSDCERLAKQCQLWDLLSDLEAKCEKVSEFVASKPGTCVKVLTIEPPPADPRLREDMALLADCALPPELRGDLWELPFPCPDGFNSCPDICFRVAGCSFLCHKAFFCGRSDYFRALLDDHFRESEEPATSGGPPAVTLHGISPDVFTHVLYYMYSDHTELSPEAAYDVLSVADMYLLPGLKRLCGRSLAQMLDEDTVVGVWRVAKLFRLARLEDQCTEYMAKVIEKLVEREDFVEAVKEEAAAVAARQETDSIPLVDDIRFHVASTVQTYSAIEEAQQRLRALEDLLVSIGLDC
B3: Vacuolar protein sorting-associated protein 28 homolog (Homo sapiens), Q9UK41-2 (parent)
chain: MFHGIPATPGIGAPGNKPELYEEVKLYKNAREREKYDNMAELFAVVKTMQALEKAYIKDCVSPSEYTAACSRLLVQYKAAFRQVQGSEISSIDEFCRKFRLDCPLAMERIKEDRPITIKDDKGNLNRCIADVVSLFITVMDKLRLEIRAMDEIQPDLRELMETMHRMSHLPPDFEGRQTVSQWWVSLPARQSPAVPETLPARRSPAVPLRPSAPTCPVLHSQAADPERHVGVR
B4: G patch domain and ankyrin repeat-containing protein 1 (Homo sapiens), O95872 (parent)
chain: MSRPLLITFTPATDPSDLWKDGQQQPQPEKPESTLDGAAARAFYEALIGDESSAPDSQRSQTEPARERKRKKRRIMKAPAAEAVAEGASGRHGQGRSLEAEDKMTHRILRAAQEGDLPELRRLLEPHEAGGAGGNINARDAFWWTPLMCAARAGQGAAVSYLLGRGAAWVGVCELSGRDAAQLAEEAGFPEVARMVRESHGETRSPENRSPTPSLQYCENCDTHFQDSNHRTSTAHLLSLSQGPQPPNLPLGVPISSPGFKLLLRGGWEPGMGLGPRGEGRANPIPTVLKRDQEGLGYRSAPQPRVTHFPAWDTRAVAGRERPPRVATLSWREERRREEKDRAWERDLRTYMNLEF
B5: E3 ubiquitin-protein ligase Midline-1 (Homo sapiens), O15344 (parent)
chain: METLESELTCPICLELFEDPLLLPCAHSLCFNCAHRILVSHCATNESVESITAFQCPTCRHVITLSQRGLDGLKRNVTLQNIIDRFQKASVSGPNSPSETRRERAFDANTMTSAEKVLCQFCDQDPAQDAVKTCVTCEVSYCDECLKATHPNKKPFTGHRLIEPIPDSHIRGLMCLEHEDEKVNMYCVTDDQLICALCKLVGRHRDHQVAALSERYDKLKQNLESNLTNLIKRNTELETLLAKLIQTCQHVEVNASRQEAKLTEECDLLIEIIQQRRQIIGTKIKEGKVMRLRKLAQQIANCKQCIERSASLISQAEHSLKENDHARFLQTAKNITERVSMATASSQVLIPEINLNDTFDTFALDFSREKKLLECLDYLTAPNPPTIREELCTASYDTITVHWTSDDEFSVVSYELQYTIFTGQANVVSLCNSADSWMIVPNIKQNHYTVHGLQSGTKYIFMVKAINQAGSRSSEPGKLKTNSQPFKLDPKSAHRKLKVSHDNLTVERDESSSKKSHTPERFTSQGSYGVAGNVFIDSGRHYWEVVISGSTWYAIGLAYKSAPKHEWIGKNSASWALCRCNNNWVVRHNSKEIPIEPAPHLRRVGILLDYDNGSIAFYDALNSIHLYTFDVAFAQPVCPTFTVWNKCLTIITGLPIPDHLDCTEQLP

Variants of: B1
Conditions: with KRT15, P19012
Chain of KRT15, P19012 (P19012 whole entry): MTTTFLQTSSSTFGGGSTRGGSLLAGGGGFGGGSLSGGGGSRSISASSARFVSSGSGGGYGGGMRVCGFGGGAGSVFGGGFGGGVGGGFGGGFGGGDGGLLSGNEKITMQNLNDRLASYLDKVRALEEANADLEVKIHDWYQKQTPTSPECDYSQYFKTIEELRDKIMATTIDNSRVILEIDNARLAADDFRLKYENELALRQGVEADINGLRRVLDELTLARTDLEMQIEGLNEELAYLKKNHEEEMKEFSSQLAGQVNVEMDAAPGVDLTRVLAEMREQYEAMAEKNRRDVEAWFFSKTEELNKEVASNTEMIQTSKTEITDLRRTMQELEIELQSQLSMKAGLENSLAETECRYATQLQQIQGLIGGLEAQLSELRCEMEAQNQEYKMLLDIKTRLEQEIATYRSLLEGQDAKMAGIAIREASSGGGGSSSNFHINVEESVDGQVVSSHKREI

Variant | effect of a mutation on the interaction
S603G | with no effect

Variants of: B2
Conditions: with ef1d_human EEF1D

Variant | effect of a mutation on the interaction
MDTSDLFASCRKGDVGRVRYLLEQRDVEVNVRDKWDSTPLYYACLCGHEELVLYLLANGARCEANTFDGERCLYGALSDPIRRALRDYKQVTASCRRRDYYDDFLQRLLEQGIHSDVVFVVHGKPFRVHRCVLGARSAYFANMLDTKWKGKSVVVLRHPLINPVAFGALLQYLYTGRLDIGVEHVSDCERLAKQCQLWDLLSDLEAKCEKVSEFVASKPGTCVKVLTIEPPPADPRLREDMALLADCALPPELRGDLWELPFPCPDGFNSCPDICFRVAGCSFLCHKAFFCGRSDYFRALLDDHFRESEEPATSGGPPAVTLHGISPDVFTHVLYYMYSDHTELSPEAAYDVLSVADMYLLPGLKRLCGRSLAQMLDEDTVVGVWHVAKLFRLARLEDQCTEYMAKVIEKLVEREDFVEAVKEEAAAVAARQETDSIPLVDDIRFHVASTVQTYSAIEEAQQRLRALEDLLVSIGLDC [R386H] | with no effect

Variants of: B2
Conditions: with ef1a2_human EEF1A2, Q05639
Chain of ef1a2_human EEF1A2, Q05639 (Q05639 whole entry): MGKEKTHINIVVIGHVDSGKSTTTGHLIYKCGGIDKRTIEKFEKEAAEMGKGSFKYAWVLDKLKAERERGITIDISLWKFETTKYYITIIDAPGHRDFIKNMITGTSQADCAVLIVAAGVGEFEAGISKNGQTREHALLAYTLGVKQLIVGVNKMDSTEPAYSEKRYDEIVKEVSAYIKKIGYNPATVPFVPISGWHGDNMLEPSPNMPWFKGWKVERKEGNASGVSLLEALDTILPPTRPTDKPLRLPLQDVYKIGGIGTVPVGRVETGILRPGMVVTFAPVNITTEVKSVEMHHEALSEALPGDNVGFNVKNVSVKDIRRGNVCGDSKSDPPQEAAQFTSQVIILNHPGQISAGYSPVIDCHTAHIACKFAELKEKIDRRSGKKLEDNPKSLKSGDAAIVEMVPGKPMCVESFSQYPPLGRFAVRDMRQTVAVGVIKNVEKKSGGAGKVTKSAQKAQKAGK

Variant | effect of a mutation on the interaction
MDTSDLFASCRKGDVGRVRYLLEQRDVEVNVRDKWDSTPLYYACLCGHEELVLYLLANGARCEANTFDGERCLYGALSDPIRRALRDYKQVTASCRRRDYYDDFLQRLLEQGIHSDVVFVVHGKPFRVHRCVLGARSAYFANMLDTKWKGKSVVVLRHPLINPVAFGALLQYLYTGRLDIGVEHVSDCERLAKQCQLWDLLSDLEAKCEKVSEFVASKPGTCVKVLTIEPPPADPRLREDMALLADCALPPELRGDLWELPFPCPDGFNSCPDICFRVAGCSFLCHKAFFCGRSDYFRALLDDHFRESEEPATSGGPPAVTLHGISPDVFTHVLYYMYSDHTELSPEAAYDVLSVADMYLLPGLKRLCGRSLAQMLDEDTVVGVWHVAKLFRLARLEDQCTEYMAKVIEKLVEREDFVEAVKEEAAAVAARQETDSIPLVDDIRFHVASTVQTYSAIEEAQQRLRALEDLLVSIGLDC [R386H] | with no effect

Variants of: B2
Conditions: with cul3_human CUL3, Q13618

Variant | effect of a mutation on the interaction
MDTSDLFASCRKGDVGRVRYLLEQRDVEVNVRDKWDSTPLYYACLCGHEELVLYLLANGARCEANTFDGERCLYGALSDPIRRALRDYKQVTASCRRRDYYDDFLQRLLEQGIHSDVVFVVHGKPFRVHRCVLGARSAYFANMLDTKWKGKSVVVLRHPLINPVAFGALLQYLYTGRLDIGVEHVSDCERLAKQCQLWDLLSDLEAKCEKVSEFVASKPGTCVKVLTIEPPPADPRLREDMALLADCALPPELRGDLWELPFPCPDGFNSCPDICFRVAGCSFLCHKAFFCGRSDYFRALLDDHFRESEEPATSGGPPAVTLHGISPDVFTHVLYYMYSDHTELSPEAAYDVLSVADMYLLPGLKRLCGRSLAQMLDEDTVVGVWHVAKLFRLARLEDQCTEYMAKVIEKLVEREDFVEAVKEEAAAVAARQETDSIPLVDDIRFHVASTVQTYSAIEEAQQRLRALEDLLVSIGLDC [R386H] | with no effect

Variants of: B3
Conditions: with ts101_human TSG101, Q99816

Variant | effect of a mutation on the interaction
MFHGIPATPGIGAPGNKPELYEEVKLYKNAREREKYDNMAELFAVVKTMQALEKAYIKDCVSPSEYTAACSRLLVQYKAAFRQVQGSEISSIDEFCRKFRLDCPLAMERIKEDRPITIKDDKGNLNRCIADVVSLFITVMDKLRLEIRAMDEIQPDLRELMETMHRMSHLPPDFEGRQTVSQWWVSLPARQSPAVPETLPARWSPAVPLRPSAPTCPVLHSQAADPERHVGVR [R203W] | with no effect

Variants of: B4
Conditions: with tri23_human TRIM23, P36406
Chain of tri23_human TRIM23, P36406 (P36406 whole entry): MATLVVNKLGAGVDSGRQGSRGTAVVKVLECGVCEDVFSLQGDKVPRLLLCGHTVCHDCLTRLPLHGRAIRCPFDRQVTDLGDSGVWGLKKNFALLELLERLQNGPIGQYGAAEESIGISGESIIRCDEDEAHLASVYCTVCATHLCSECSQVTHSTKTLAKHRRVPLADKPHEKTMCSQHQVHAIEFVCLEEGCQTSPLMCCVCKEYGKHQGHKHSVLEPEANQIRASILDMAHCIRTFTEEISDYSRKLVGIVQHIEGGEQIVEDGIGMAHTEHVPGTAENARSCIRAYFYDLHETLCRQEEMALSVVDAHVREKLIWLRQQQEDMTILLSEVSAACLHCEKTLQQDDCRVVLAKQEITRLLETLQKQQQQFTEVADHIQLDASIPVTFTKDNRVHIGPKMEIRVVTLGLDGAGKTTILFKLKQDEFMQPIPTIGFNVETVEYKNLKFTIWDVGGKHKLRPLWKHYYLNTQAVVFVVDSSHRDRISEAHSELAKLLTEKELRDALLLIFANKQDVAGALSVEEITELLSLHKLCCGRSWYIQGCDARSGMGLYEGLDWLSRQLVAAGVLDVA

Variant | effect of a mutation on the interaction
MSRPLLITFTPATDPSDLWKDGQQQPQPEKPESTLDGAAARAFYEALIGDESSAPESQRSQTEPARERKRKKRRIMKAPAAEAVAEGASGRHGQGRSLEAEDKMTHRILRAAQEGDLPELRRLLEPHEAGGAGGNINARDAFWWTPLMCAARAGQGAAVSYLLGRGAAWVGVCELSGRDAAQLAEEAGFPEVARMVRESHGETRSPENRSPTPSLQYCENCDTHFQDSNHRTSTAHLLSLSQGPQPPNLPLGVPISSPGFKLLLRGGWEPGMGLGPRGEGRANPIPTVLKRDQEGLGYRSAPQPRVTHFPAWDTRAVAGRERPPRVATLSWREERRREEKDRAWERDLRTYMNLEF [D56E] | with no effect

Variants of: B4
Conditions: with pnma1_human PNMA1, Q8ND90
Chain of pnma1_human PNMA1, Q8ND90 (Q8ND90 whole entry): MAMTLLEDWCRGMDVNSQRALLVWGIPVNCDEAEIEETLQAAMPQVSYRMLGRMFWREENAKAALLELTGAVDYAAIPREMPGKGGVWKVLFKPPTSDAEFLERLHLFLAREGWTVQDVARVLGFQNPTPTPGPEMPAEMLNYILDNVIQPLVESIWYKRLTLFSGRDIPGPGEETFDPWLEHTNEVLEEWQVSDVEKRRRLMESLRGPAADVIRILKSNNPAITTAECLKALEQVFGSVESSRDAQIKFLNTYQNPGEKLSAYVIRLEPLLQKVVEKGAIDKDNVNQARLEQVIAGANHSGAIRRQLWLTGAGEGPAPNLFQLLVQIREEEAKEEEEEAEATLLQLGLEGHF

Variant | effect of a mutation on the interaction
MSRPLLITFTPATDPSDLWKDGQQQPQPEKPESTLDGAAALAFYEALIGDESSAPDSQRSQTEPARERKRKKRRIMKAPAAEAVAEGASGRHGQGRSLEAEDKMTHRILRAAQEGDLPELRRLLEPHEAGGAGGNINARDAFWWTPLMCAARAGQGAAVSYLLGRGAAWVGVCELSGRDAAQLAEEAGFPEVARMVRESHGETRSPENRSPTPSLQYCENCDTHFQDSNHRTSTAHLLSLSQGPQPPNLPLGVPISSPGFKLLLRGGWEPGMGLGPRGEGRANPIPTVLKRDQEGLGYRSAPQPRVTHFPAWDTRAVAGRERPPRVATLSWREERRREEKDRAWERDLRTYMNLEF [R41L] | with no effect

Variants of: B5
Conditions: with meox1_human MEOX1, P50221
Chain of meox1_human MEOX1, P50221 (P50221 whole entry): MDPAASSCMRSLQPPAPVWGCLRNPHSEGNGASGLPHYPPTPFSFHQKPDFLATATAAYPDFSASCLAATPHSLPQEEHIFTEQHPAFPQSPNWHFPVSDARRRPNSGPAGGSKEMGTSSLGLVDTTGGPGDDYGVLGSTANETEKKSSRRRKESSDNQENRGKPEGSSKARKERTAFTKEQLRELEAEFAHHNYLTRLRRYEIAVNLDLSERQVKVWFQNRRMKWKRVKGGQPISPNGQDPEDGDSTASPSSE

Variant | effect of a mutation on the interaction
D84N | with no effect

Variants of: B5
Conditions: with echp_human EHHADH

Variant | effect of a mutation on the interaction
D84N | with no effect

Variants of: B5
Conditions: with ub2d3_human UBE2D3, P61077
Chain of ub2d3_human UBE2D3, P61077 (P61077 whole entry): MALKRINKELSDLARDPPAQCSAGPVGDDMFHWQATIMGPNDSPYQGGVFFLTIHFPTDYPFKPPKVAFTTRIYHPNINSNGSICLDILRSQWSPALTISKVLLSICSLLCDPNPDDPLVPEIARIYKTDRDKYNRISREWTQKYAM

Variant | effect of a mutation on the interaction
D84N | with no effect

Variants of: B5
Conditions: with ub2e2_human UBE2E2, Q96LR5
Chain of ub2e2_human UBE2E2, Q96LR5 (Q96LR5 whole entry): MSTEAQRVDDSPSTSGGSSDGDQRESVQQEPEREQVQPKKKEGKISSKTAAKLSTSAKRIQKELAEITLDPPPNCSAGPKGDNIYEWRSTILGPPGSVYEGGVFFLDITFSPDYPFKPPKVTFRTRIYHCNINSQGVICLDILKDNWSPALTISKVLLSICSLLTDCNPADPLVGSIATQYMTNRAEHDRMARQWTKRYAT

Variant | effect of a mutation on the interaction
D84N | with no effect
